Data taken from paper PMC12403594, “On the self-assembly of αB-crystallin” (Soft Matter, 2025).

Experiments:
[1] = target: the molecule itself; experiment: static light scattering; day 7 after sample preparation; 10-69 μM αBC; 20 mM sodium phosphate, 0.2 mM EDTA, 0.02% NaN3, pH 8.0; 25 °C; aggregation number from the slope of the excess Rayleigh ratio at q = 0 against concentration
[2] = target: the molecule itself; experiment: static light scattering; day 0 (day of thawing and dilution); 10-69 μM αBC; 20 mM sodium phosphate, 0.2 mM EDTA, 0.02% NaN3, pH 8.0; 25 °C; aggregation number from the slope of the excess Rayleigh ratio at q = 0 against concentration

B1: Recombinant human αB-crystallin (natural protein)
chain: MDIAIHHPWIRRPFFPFHSPSRLFDQFFGEHLLESDLFPTSTSLSPFYLRPPSFLRAPSWFDTGLSEMRLEKDRFSVNLDVKHFSPEELKVKVLGDVIEVHGKHEERQDEHGFISREFHRKYRIPADVDPLTITSSLSSDGVLTVNGPRKQVSGPERTIPITREEKPAVTAAPKK
notes: αB-crystallin, human; expressed from a synthetic gene with E. coli-optimized codons in a Pet3a vector; No tag is mentioned; The introduction gives 175 residues for the protein
[1]
  stoichiometry N: 19
[2]
  stoichiometry N: 24
